Data as given in publication PMC10887324, “Electrochemical Aptasensing Platform for the Detection of Retinol Binding Protein-4”.

Assays:
[1] = target: T1, Retinol binding protein-4 (RBP-4) (UniProt P02753 19-201); test: EIS (electrochemical impedance, Langmuir linearization); same measurement as the Kd row; 2 mM MgCl2; 0.1 M PBS + 2 mM MgCl2, Fe(CN)6 3-/4- redox probe, aptamer on gold electrode with MCH; aptamer folded at 70 C 1 min then ice 10 min; immobilization at room temp
[2] = target: T1, Retinol binding protein-4 (RBP-4); test: EIS (electrochemical impedance, Langmuir linearization); folded aptamer, 0.1 uM in immobilization; 2 mM MgCl2; Fe(CN)6 3-/4- probe; 0.1 M PBS + 2 mM MgCl2, Fe(CN)6 3-/4- redox probe, aptamer on gold electrode with MCH; aptamer folded at 70 C 1 min then ice 10 min; immobilization at room temp

B1: Apt-RBP-4 (ssDNA)
DNA: ACAGTAGTGAGGGGTCCGTCGTGGGGTAGTTGGGTCGTGG
modifications: 5'-thiol (-SH)
Ka [1]: 2e+07 M⁻¹
Kd [2]: 50 nM
